“Also recorded” adds a separate entry of the source.
Columns and labels:
[1] = test system: FGFR2-fusion transformed BaF3 cells; experiment: viability assay of BaF3 cells expressing FGFR2 fusions (FIG. 2); type: cell-based
Description: A table showing IC50 (μM) is also provided.
(§1) NIH3T3 cells transformed with FGFR2-BICC1, FGFR2-AHCYL1, and FGFR2-PHGDH fusions were also sensitive to BGJ398 treatment (FIG. 5).

[2] = test system: NIH3T3 cells transformed with FGFR2-BICC1, FGFR2-AHCYL1, and FGFR2-PHGDH fusions; experiment: growth of NIH3T3 cells transformed with FGFR2 fusions (FIG. 5); type: cell-based
Description: as §1

[3] = test system: FGFR2 fusion-positive ICC; settings: phase II trial; cited from earlier work
[4] = test system: NIH3T3 cells overexpressing FGFR2-BICC1 fusion; experiment: NIH3T3 FGFR2-BICC1 cell confluency, Incucyte (FIGS. 19A-19E); type: cell-based; settings: 60 hours, 0.013-1 μM
Experimental: FIGS. 19A-19E present graphs showing the ability of biparatopic antibodies to impact FGFR2-fusion driven cell growth in NIH3T3 cells molecularly engineered to overexpress FGFR2-BICC1 fusion. […] The nomenclature of the biparatopic antibodies is based on the designations and descriptions of the parental antibodies presented in FIG. 7B.
(§2) The impact of biparatopic antibodies on FGFR2-fusion driven cell growth was assessed in a cell-based assay using biparatopic antibodies that bind to the ECD of FGFR2 and generated as described supra (Example 4). As described herein, the biparatopic antibodies were added to cultures of cells (e.g., NIH3T3 cells or BaF3 cells) molecularly engineered to overexpress FGFR2 fusion.
For assays using NIH3T3 cells, (FIGS. 19A-19E), NIH3T3 cells overexpressing a FGFR2-BICC1 fusion construct were plated in 384 black well plates at a concentration of 1000 cells/well overnight. 6 parental antibodies and 13 biparatopic antibodies were added to each well in duplicates at various concentrations ranging from 1 μM to 0.013 μM (1 μM, 0.833 μM, 0.600 μM, 0.450 μM, 0.316 μM, 0.233 μM, 0.166 μM, 0.125 μM, 0.091 μM, 0.066 μM, 0.048 μM, 0.035 μM, 0.025 μM, 0.018 μM, and 0.013 μM). The cell confluency was measured using Incucyte at 60 hours post treatment, and the IC50 curves were generated using non-linear fit in PRISM 9 software.

[5] = target: FGFR2b alpha IIIb antigen (UniProt P21802); experiment: SPR (Biacore), antibody immobilized, FGFR2b alpha IIIb in flow
[6] = test system: BaF3 cells overexpressing FGFR2-PHGDH fusion; experiment: BaF3 FGFR2-PHGDH cell survival, CellTiter-Glo (FIGS. 18A-18D); type: cell-based; settings: no IL3, no FGF, 5 days, 0.013-1 μM
Description: FIGS. 18A-18D present graphs showing the ability of biparatopic antibodies to impact FGFR2-fusion driven cell growth in BaF3 cells molecularly engineered to overexpress FGFR2-PHGDH fusion. […] These biparatopic antibodies were also more efficient at inhibiting growth of BaF3 cells overexpressing the FGFR2-PHGDH fusion compared to their parental antibodies. The nomenclature of the biparatopic antibodies is based on the designations and descriptions of the parental antibodies presented in FIG. 7B.
as §2
In particular, for assays using BaF3 cells (FIGS. 18A-18D), BaF3 cells overexpressing empty vector control or FGFR2-PHGDH fusion construct were plated in the absence of IL3 and FGF in 384 black well plates at a concentration of 750 cells/well overnight. […] The cell survival was measured using CellTiter-Glo at 5 days post treatment and the IC50 curves were generated using non-linear fit in PRISM 9 software. […]

[7] = target: FGFR2b alpha IIIb antigen (UniProt P21802); experiment: SPR (Biacore), KD matrix by the two arms; unit M from FIG. 17B and paragraph 180; FIG. 17B prints 9.1E-10 for the same antibody

For `CCN1CCN(c2ccc(Nc3cc(N(C)C(=O)Nc4c(Cl)c(OC)cc(OC)c4Cl)ncn3)cc2)CC1` [NVP-BGJ398], the “sensitivity of FGFR2-fusion transformed BaF3 cells (viability)” value [1] is listed as “sensitive; also recorded: showed sensitivity”, the “sensitivity of NIH3T3 cells transformed with FGFR2 fusions” value [2] is listed as “sensitive” and the “efficacy in patients with FGFR2 fusion-positive ICC” value [3] is listed as “encouraging efficacy”.

B1: Biparatopic antibody B/N12 (bispecific antibody, V domains shown)
VH 1: EVQLLESGGGLVQPGGSLRLSCAASGFTFSSYAMSWVRQAPGKGLEWVSAISGSGTSTYYADSVKGRFTISRDNSKNTLYLQMNSLRAEDTAVYYCARVRYNWNHGDWFDPWGQGTLVTVSS
VL 1: QSVLTQPPSASGTPGQRVTISCSGSSSNIGNNYVSWYQQLPGTAPKLLIYENYNRPAGVPDRFSGSKSGTSASLAISGLRSEDEADYYCSSWDDSLNYWVFGGGTKLTVLG
VH 2: QVQLVQSGAEVKKPGESLKISCKGSGYSFTNYYIHWVRQMPGKGLEWMGAIYPDNSDTTYSPSFQGQVTISADKSISTAYLQWSSLKASDTAMYYCARGADIWGQGTLVTVSS
VL 2: DIQMTQSPSSLSASVGDRVTITCRASQDIDPYLSNWYQQKPGKAPKLLIYDASNLQSGVPSRFSGSGSGTDFTLTISSLQPEDFATYYCQQTTSHPYTFGQGTKVEIK
For B1, the “inhibition of growth of NIH3T3 cells overexpressing FGFR2-BICC1 compared to parental antibodies” value [4] was “more efficient and potent; also recorded: more effective and potent”, the Binding Stoichiometry [5] was 1.3 and the Kd [5] was 0.91 nM. For the same molecule, the “inhibition of growth of BaF3 cells overexpressing FGFR2-PHGDH compared to control cells overexpressing empty vector” value [6] was “more efficient and potent; also recorded: more effective and potent” and the Kd [7] was 0.82 nM.
